Measurements: patent US20210238276A1 (INTEGRAL MOLECULAR, published 2021)

Columns and labels:
Assay in all cases: flow cytometry, alanine-scan library in HEK-293T, with cytochalasin B
hsGLUT4 G446A = target: T1, hsGLUT4 G446A (human, UniProt P14672 1-509)
T1 sequence: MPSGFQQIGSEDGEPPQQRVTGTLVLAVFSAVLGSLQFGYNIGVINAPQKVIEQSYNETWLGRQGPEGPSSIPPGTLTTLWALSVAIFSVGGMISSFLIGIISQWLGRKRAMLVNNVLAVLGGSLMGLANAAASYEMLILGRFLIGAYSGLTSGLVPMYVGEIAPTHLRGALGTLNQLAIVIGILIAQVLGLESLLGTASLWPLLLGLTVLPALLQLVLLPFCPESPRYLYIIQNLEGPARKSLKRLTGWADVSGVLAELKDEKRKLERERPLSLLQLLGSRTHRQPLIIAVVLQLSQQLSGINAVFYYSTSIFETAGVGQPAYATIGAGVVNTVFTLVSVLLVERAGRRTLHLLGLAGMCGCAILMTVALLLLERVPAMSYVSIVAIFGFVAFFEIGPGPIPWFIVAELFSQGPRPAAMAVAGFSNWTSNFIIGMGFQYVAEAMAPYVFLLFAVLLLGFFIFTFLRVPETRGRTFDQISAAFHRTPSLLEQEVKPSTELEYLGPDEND
Procedure: (§1) Because of the state-dependence of the isolated MAbs, we next wished to understand the mechanism by which each MAb could recognize GLUT4 in its different conformations. The residues required for binding of each MAb were determined using shotgun mutagenesis comprehensive alanine scanning (Davidson E & Doranz B J (2014) A High-Throughput Shotgun Mutagenesis Approach to Mapping B-cell Antibody Epitopes. Immunology, which is hereby incorporated by reference in its entirety). All residues of hsGLUT4 were individually mutated to alanine, with existing alanines changed to serines. Mutations were obtained for 508 of the 509 residues of GLUT4 (excluding the initiating methionine). The entire mutation library was transfected into human HEK-293T cells in a 384-well array format (one clone per well) and assessed for immunoreactivity using high-throughput flow cytometry.
(§2) HEK-293T cells were transfected by CaPO₄ with plasmids in 6-well culture plates (Falcon) at 750,000 cells/well. At 48 hours post transfection, cells were stained with anti-V5 and anti-GLUT4 MAbs (purified scFv, 2 μg/ml) followed by biotinylated goat anti-mouse or human antibody (1:500) and streptavidin-PerCP (1:500). Fluorescence was detected using an Intellicyt high-throughput flow cytometer (HTFC; Intellicyt, Albuquerque, N. Mex.). For cell permeabilization, cells were treated with saponin at 0.1% in PBS for 20 minutes. To discriminate intact (live) and permeabilized (dead) cells without the use of detergent, propidium iodide (PI) was added to HEK-293T cells at 1 ug/ml just prior to flow cytometry. Where indicated, cytochalasin B (Sigma) was used at a final concentration of 10 uM and phloretin (Sigma) was used at a final concentration of 100 uM, each added in 10% NGS for 30 minutes prior to antibody staining as well as included with the primary antibody.

hsGLUT4 G65A = target: T2, hsGLUT4 G65A (human, UniProt P14672 1-509)
T2 sequence: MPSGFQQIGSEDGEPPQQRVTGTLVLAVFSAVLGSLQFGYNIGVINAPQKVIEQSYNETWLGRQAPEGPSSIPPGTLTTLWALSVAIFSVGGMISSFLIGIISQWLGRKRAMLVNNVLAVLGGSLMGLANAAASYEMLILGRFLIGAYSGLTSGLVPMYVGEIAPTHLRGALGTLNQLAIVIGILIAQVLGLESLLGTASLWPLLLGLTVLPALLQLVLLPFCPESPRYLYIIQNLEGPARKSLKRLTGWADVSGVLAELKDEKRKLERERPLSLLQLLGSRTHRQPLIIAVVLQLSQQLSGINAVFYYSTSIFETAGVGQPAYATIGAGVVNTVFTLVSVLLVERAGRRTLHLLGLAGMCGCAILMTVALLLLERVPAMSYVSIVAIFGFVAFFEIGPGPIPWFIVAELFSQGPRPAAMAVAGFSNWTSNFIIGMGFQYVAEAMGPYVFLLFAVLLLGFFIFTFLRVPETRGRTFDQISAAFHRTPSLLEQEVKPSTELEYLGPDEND
Procedure: as §1, §2

hsGLUT4 E507A = target: T3, hsGLUT4 E507A (human, UniProt P14672 1-509)
T3 sequence: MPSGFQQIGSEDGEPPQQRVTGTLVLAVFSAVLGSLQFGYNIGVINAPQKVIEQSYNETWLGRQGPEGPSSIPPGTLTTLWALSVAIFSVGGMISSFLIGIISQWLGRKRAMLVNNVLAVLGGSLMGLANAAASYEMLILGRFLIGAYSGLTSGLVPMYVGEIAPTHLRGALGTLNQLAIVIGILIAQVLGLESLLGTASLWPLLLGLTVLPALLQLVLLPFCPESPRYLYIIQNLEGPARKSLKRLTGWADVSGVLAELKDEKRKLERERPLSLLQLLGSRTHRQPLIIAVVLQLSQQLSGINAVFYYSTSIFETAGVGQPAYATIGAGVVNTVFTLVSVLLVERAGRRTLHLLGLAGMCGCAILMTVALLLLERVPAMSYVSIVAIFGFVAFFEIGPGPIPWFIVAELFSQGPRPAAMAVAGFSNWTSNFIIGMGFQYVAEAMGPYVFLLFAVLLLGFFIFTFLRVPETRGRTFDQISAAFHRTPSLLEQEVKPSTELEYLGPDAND
Procedure: as §1, §2

hsGLUT4 G414A = target: T4, hsGLUT4 G414A (human, UniProt P14672 1-509)
T4 sequence: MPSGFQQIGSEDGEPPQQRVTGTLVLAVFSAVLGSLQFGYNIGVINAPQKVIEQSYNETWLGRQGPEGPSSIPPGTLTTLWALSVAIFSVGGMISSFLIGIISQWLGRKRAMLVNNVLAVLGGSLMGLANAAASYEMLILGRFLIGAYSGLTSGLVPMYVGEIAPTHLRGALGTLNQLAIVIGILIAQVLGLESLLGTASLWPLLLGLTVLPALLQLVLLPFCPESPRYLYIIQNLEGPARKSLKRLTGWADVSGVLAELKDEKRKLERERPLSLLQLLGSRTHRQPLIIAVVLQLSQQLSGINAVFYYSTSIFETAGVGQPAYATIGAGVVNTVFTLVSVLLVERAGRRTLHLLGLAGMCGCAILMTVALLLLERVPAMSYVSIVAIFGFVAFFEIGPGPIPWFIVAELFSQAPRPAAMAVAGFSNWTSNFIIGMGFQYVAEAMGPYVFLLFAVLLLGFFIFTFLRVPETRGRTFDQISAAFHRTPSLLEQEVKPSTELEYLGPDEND
Procedure: as §1, §2

B1: AB102 (Fc fusion)
scFv: ALTQPSSVSANLGGTVKITCSGGGSYGYGWYQQKSPGSAPVTVIYSNDQRPSDIPSRFSGSKSGSTATLTITGVRAEDEAIYYCGSTDSDYVGIFGAGTTLTVLGQSSRSSGGGGSSGGGGSAVTLDESGGGLQTPGGTLSLVCKASGFDFSSYATIWVRQAPGKGLEWVAGISGTGTGSSTGYAPAVKGRATISRDNGQSTVRLQLNNLRAEDTGSYFCAKSTGYGDSWIYPDSIDAWGHGTEVIVSS
notes: also called MAb AB102; not shown: Fc fragment of human IgG1, cloned in frame with the scFv
Q: B1 was tested. Which “% of binding to wild type GLUT4” value (hsGLUT4 G446A) did it give?
A: Its value is 43%.

Q: What about the “% of binding to wild type GLUT4” value (hsGLUT4 G65A) of the same binder?
A: The value was 95%.

Q: And the “% of binding to wild type GLUT4” value (hsGLUT4 E507A)?
A: The value was 97%.

Q: And the “% of binding to wild type GLUT4” value (hsGLUT4 G414A)?
A: Its value is 23%.
